The sequences below were run on Escherichia coli TOP10 (assay: shrunken log2 fold change of peptide-encoding DNA abundance (4.5 h post-induction vs induction); higher = less antimicrobial activity (less host growth inhibition)). Details: time post-induction: 4.5 h; library: site-saturation at positions 5, 18, 19, 20.
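Also: peptides expressed intracellularly from a pBAD plasmid library in pooled LB shake-flask culture, induced with 0.3% L-arabinose, DNA abundance read by NGS, three biological replicates, DESeq2 with apeglm shrinkage.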

| Sequence | shrunken log2 fold change |
| --- | --- |
| RRIRIRPPRLPRPRPRPKPNPRP | -0.105 |
| RRIRIRPPRLPRPRPRPKQGPRP | 0.391 |
| RRIRIRPPRLPRPRPRPKQVPRP | -0.118 |
| RRIRIRPPRLPRPRPRPKRIPRP | 0.0468 |
| RRIRIRPPRLPRPRPRPKSFPRP | 0.0398 |
| RRIRIRPPRLPRPRPRPKSRPRP | -0.108 |
| RRIRIRPPRLPRPRPRPKSSPRP | -0.143 |
| RRIRIRPPRLPRPRPRPKTGPRP | -0.388 |
| RRIRIRPPRLPRPRPRPKTWPRP | -0.258 |
| RRIRIRPPRLPRPRPRPKVLPRP | -0.0165 |
| RRIRIRPPRLPRPRPRPKWGPRP | -0.00761 |
| RRIRIRPPRLPRPRPRPKWPPRP | 0.0341 |
| RRIRIRPPRLPRPRPRPKWQPRP | -0.114 |
| RRIRIRPPRLPRPRPRPKYKPRP | -0.775 |
| RRIRIRPPRLPRPRPRPKYLPRP | -0.437 |
| RRIRIRPPRLPRPRPRPKYMPRP | -0.566 |
| RRIRIRPPRLPRPRPRPLACPRP | -0.398 |
| RRIRIRPPRLPRPRPRPLCFPRP | -0.485 |
| RRIRIRPPRLPRPRPRPLDKPRP | -0.141 |
| RRIRIRPPRLPRPRPRPLDVPRP | -0.0639 |
| RRIRIRPPRLPRPRPRPLGEPRP | -0.277 |
| RRIRIRPPRLPRPRPRPLGLPRP | -0.177 |
| RRIRIRPPRLPRPRPRPLHCPRP | -1.13 |
| RRIRIRPPRLPRPRPRPLHPPRP | -0.0764 |
| RRIRIRPPRLPRPRPRPLHQPRP | -0.121 |

| Sequence | shrunken log2 fold change |
| --- | --- |
| RRIRIRPPRLPRPRPRPLKAPRP | -0.02 |
| RRIRIRPPRLPRPRPRPLKQPRP | 0.0465 |
| RRIRIRPPRLPRPRPRPLMLPRP | -0.704 |
| RRIRIRPPRLPRPRPRPLNKPRP | -0.398 |
| RRIRIRPPRLPRPRPRPLNSPRP | -0.652 |
| RRIRIRPPRLPRPRPRPLPEPRP | 0.0361 |
| RRIRIRPPRLPRPRPRPLPKPRP | 0.263 |
| RRIRIRPPRLPRPRPRPLPRPRP | 0.2 |
| RRIRIRPPRLPRPRPRPLPYPRP | -0.565 |
| RRIRIRPPRLPRPRPRPLQPPRP | 0.327 |
| RRIRIRPPRLPRPRPRPLSGPRP | -0.0874 |
| RRIRIRPPRLPRPRPRPLTIPRP | -0.536 |
| RRIRIRPPRLPRPRPRPLTMPRP | -0.181 |
| RRIRIRPPRLPRPRPRPLWHPRP | -0.105 |
| RRIRIRPPRLPRPRPRPLWYPRP | -0.551 |
| RRIRIRPPRLPRPRPRPLYTPRP | -0.723 |
| RRIRIRPPRLPRPRPRPMALPRP | -0.581 |
| RRIRIRPPRLPRPRPRPMCSPRP | -0.119 |
| RRIRIRPPRLPRPRPRPMECPRP | -0.153 |
| RRIRIRPPRLPRPRPRPMFFPRP | -0.534 |
| RRIRIRPPRLPRPRPRPMFPPRP | -0.724 |
| RRIRIRPPRLPRPRPRPMGIPRP | 0.000142 |
| RRIRIRPPRLPRPRPRPMGLPRP | -0.0686 |
| RRIRIRPPRLPRPRPRPMGQPRP | -0.077 |
| RRIRIRPPRLPRPRPRPMHVPRP | -0.00468 |

| Sequence | shrunken log2 fold change |
| --- | --- |
| RRIRIRPPRLPRPRPRPMIFPRP | -0.266 |
| RRIRIRPPRLPRPRPRPMIWPRP | -0.0224 |
| RRIRIRPPRLPRPRPRPMIYPRP | -0.205 |
| RRIRIRPPRLPRPRPRPMKAPRP | -1.03 |
| RRIRIRPPRLPRPRPRPMKCPRP | -0.0692 |
| RRIRIRPPRLPRPRPRPMKTPRP | -0.057 |
| RRIRIRPPRLPRPRPRPMLKPRP | -0.282 |
| RRIRIRPPRLPRPRPRPMLRPRP | -0.119 |
| RRIRIRPPRLPRPRPRPMLSPRP | -0.403 |
| RRIRIRPPRLPRPRPRPMLVPRP | 0.0625 |
| RRIRIRPPRLPRPRPRPMMCPRP | 0.0233 |
| RRIRIRPPRLPRPRPRPMMIPRP | -0.0366 |
| RRIRIRPPRLPRPRPRPMMWPRP | -0.00731 |
| RRIRIRPPRLPRPRPRPMNPPRP | -0.372 |
| RRIRIRPPRLPRPRPRPMPDPRP | 0.0702 |
| RRIRIRPPRLPRPRPRPMPIPRP | -0.0218 |
| RRIRIRPPRLPRPRPRPMRAPRP | 1.01 |
| RRIRIRPPRLPRPRPRPMRDPRP | 0.189 |
| RRIRIRPPRLPRPRPRPMRTPRP | 0.0509 |
| RRIRIRPPRLPRPRPRPMVEPRP | 3.19 |
| RRIRIRPPRLPRPRPRPMYIPRP | -0.0364 |
| RRIRIRPPRLPRPRPRPNAFPRP | -0.0665 |
| RRIRIRPPRLPRPRPRPNATPRP | -0.12 |
| RRIRIRPPRLPRPRPRPNCDPRP | -0.486 |
| RRIRIRPPRLPRPRPRPNCFPRP | 0.00306 |

| Sequence | shrunken log2 fold change |
| --- | --- |
| RRIRIRPPRLPRPRPRPNDHPRP | -0.569 |
| RRIRIRPPRLPRPRPRPNDMPRP | -1.13 |
| RRIRIRPPRLPRPRPRPNEDPRP | -0.488 |
| RRIRIRPPRLPRPRPRPNGNPRP | -0.365 |
| RRIRIRPPRLPRPRPRPNHHPRP | -0.868 |
| RRIRIRPPRLPRPRPRPNHLPRP | -0.844 |
| RRIRIRPPRLPRPRPRPNIDPRP | -0.619 |
| RRIRIRPPRLPRPRPRPNIVPRP | -0.665 |
| RRIRIRPPRLPRPRPRPNKSPRP | -0.919 |
| RRIRIRPPRLPRPRPRPNLCPRP | -0.0543 |
| RRIRIRPPRLPRPRPRPNLTPRP | 0.0979 |
| RRIRIRPPRLPRPRPRPNNFPRP | -0.388 |
| RRIRIRPPRLPRPRPRPNNKPRP | -0.85 |
| RRIRIRPPRLPRPRPRPNNYPRP | -0.996 |
| RRIRIRPPRLPRPRPRPNPGPRP | -0.209 |
| RRIRIRPPRLPRPRPRPNQEPRP | -0.177 |
| RRIRIRPPRLPRPRPRPNTNPRP | -0.905 |
| RRIRIRPPRLPRPRPRPNTWPRP | -0.406 |
| RRIRIRPPRLPRPRPRPNVFPRP | -0.27 |
| RRIRIRPPRLPRPRPRPPCGPRP | -0.239 |
| RRIRIRPPRLPRPRPRPPDFPRP | 0.189 |
| RRIRIRPPRLPRPRPRPPEFPRP | -0.0754 |
| RRIRIRPPRLPRPRPRPPEHPRP | -0.037 |
| RRIRIRPPRLPRPRPRPPENPRP | 0.0392 |
| RRIRIRPPRLPRPRPRPPFGPRP | 0.255 |

| Sequence | shrunken log2 fold change |
| --- | --- |
| RRIRIRPPRLPRPRPRPPGSPRP | 0.0671 |
| RRIRIRPPRLPRPRPRPPHVPRP | -0.265 |
| RRIRIRPPRLPRPRPRPPIPPRP | 0.00551 |
| RRIRIRPPRLPRPRPRPPLKPRP | -0.105 |
| RRIRIRPPRLPRPRPRPPNMPRP | -0.422 |
| RRIRIRPPRLPRPRPRPPPMPRP | 0.377 |
| RRIRIRPPRLPRPRPRPPPWPRP | 0.508 |
| RRIRIRPPRLPRPRPRPPQNPRP | -0.33 |
| RRIRIRPPRLPRPRPRPPRTPRP | 0.195 |
| RRIRIRPPRLPRPRPRPPVLPRP | 0.328 |
| RRIRIRPPRLPRPRPRPPWDPRP | 0.0808 |
| RRIRIRPPRLPRPRPRPPWPPRP | 0.397 |
| RRIRIRPPRLPRPRPRPPWRPRP | 0.507 |
| RRIRIRPPRLPRPRPRPPWYPRP | -0.394 |
| RRIRIRPPRLPRPRPRPPYEPRP | -0.315 |
| RRIRIRPPRLPRPRPRPPYGPRP | -0.202 |
| RRIRIRPPRLPRPRPRPQADPRP | -0.0941 |
| RRIRIRPPRLPRPRPRPQCGPRP | 0.0719 |
| RRIRIRPPRLPRPRPRPQCKPRP | -0.532 |
| RRIRIRPPRLPRPRPRPQEVPRP | 0.0526 |
| RRIRIRPPRLPRPRPRPQFAPRP | -0.0319 |
| RRIRIRPPRLPRPRPRPQFGPRP | 1.74 |
| RRIRIRPPRLPRPRPRPQGRPRP | -0.25 |
| RRIRIRPPRLPRPRPRPQGWPRP | -0.00188 |
| RRIRIRPPRLPRPRPRPQHIPRP | -0.542 |

| Sequence | shrunken log2 fold change |
| --- | --- |
| RRIRIRPPRLPRPRPRPQHLPRP | -0.542 |
| RRIRIRPPRLPRPRPRPQIGPRP | -0.451 |
| RRIRIRPPRLPRPRPRPQIHPRP | -0.796 |
| RRIRIRPPRLPRPRPRPQMPPRP | -0.662 |
| RRIRIRPPRLPRPRPRPQNYPRP | -0.428 |
| RRIRIRPPRLPRPRPRPQPCPRP | -0.0143 |
| RRIRIRPPRLPRPRPRPQQMPRP | -0.0189 |
| RRIRIRPPRLPRPRPRPQRCPRP | -0.0109 |
| RRIRIRPPRLPRPRPRPQSHPRP | -0.383 |
| RRIRIRPPRLPRPRPRPQSVPRP | -0.295 |
| RRIRIRPPRLPRPRPRPQTAPRP | 0.101 |
| RRIRIRPPRLPRPRPRPQTHPRP | -0.412 |
| RRIRIRPPRLPRPRPRPQTIPRP | -0.337 |
| RRIRIRPPRLPRPRPRPQVSPRP | -0.21 |
| RRIRIRPPRLPRPRPRPQVWPRP | -0.0966 |
| RRIRIRPPRLPRPRPRPQWFPRP | -0.0117 |
| RRIRIRPPRLPRPRPRPQWIPRP | 3.04 |
| RRIRIRPPRLPRPRPRPQWVPRP | -0.023 |
| RRIRIRPPRLPRPRPRPQWYPRP | -0.485 |
| RRIRIRPPRLPRPRPRPRCCPRP | -0.181 |
| RRIRIRPPRLPRPRPRPRCIPRP | -0.44 |
| RRIRIRPPRLPRPRPRPRDCPRP | -0.296 |
| RRIRIRPPRLPRPRPRPRDMPRP | -0.902 |
| RRIRIRPPRLPRPRPRPRDRPRP | -0.0241 |
| RRIRIRPPRLPRPRPRPREFPRP | 0.0231 |

— the supplement of paper PMC9112550, “Optimization of the antimicrobial peptide Bac7 by deep mutational scanning” (BMC Biology, 2022)
